Assay [1] addresses T1, Anti-PSMA Fab (SEQ ID NOs: 19, 20).
T1 construct: Biotinylated and captured on neutravidin coated plates in the phage ELISA; also called 006 PSMA Fab
The assay can be described thus: phage binding ELISA; biotinylated PSMA Fab on neutravidin plate, bound phage detected with anti-M13 HRP.

The target is the same in assay [2]. The assay can be described thus: phage binding ELISA on captured PSMA Fab; competitor PSMA antigen pre-incubated in the well.
Assay [3] has as its target T2, Anti-PSMA Fab (SEQ ID NOs: 19, 20).
T2 construct: Biotinylated PSMA Fab captured on neutravidin coated plates in the phage ELISA; also called 006 PSMA Fab
In words: phage binding ELISA on captured PSMA Fab pre-incubated with PSMA antigen as competitor, anti-M13 HRP detection.

The target is the same in assay [4]. The assay can be described thus: phage binding ELISA; clonal phage supernatant on biotinylated PSMA Fab captured on neutravidin plates, anti-M13 HRP detection.
The target of assay [5] is T3, Anti-PSMA Fab (SEQ ID NOs: 19, 20).
T3 construct: In the panning ELISA the Fab was biotinylated and captured on neutravidin coated plates; also called 006 PSMA Fab
The assay can be described thus: phage binding ELISA; biotinylated PSMA Fab on neutravidin plate pre-incubated with PSMA antigen (competitor), anti-M13 HRP detection.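 Further: competition ELISA where clonal phage supernatants were added to wells preincubated with PSMA antigen or with blocking buffer only as control, bound phage read via HRP-coupled anti-M13 antibody.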

Assay [6] has the same target. In words: phage binding ELISA; biotinylated PSMA Fab on neutravidin plate, clonal phage supernatant, anti-M13 HRP detection.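 Further: wells were preincubated with blocking buffer either containing PSMA antigen or without it before crude phage supernatant was added, briefly incubated, then washed prior to detection.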

We go through 33 molecules from patent US20260242478A1 (published 2026).

Where no end group is shown, it is not given here.

B1: Phage-1895 (peptide)
peptide: WEKMCVPSWMCHFS
modifications: cysteine pairing not given here; also: fused to phage pIII, sequence and linker not given here
notes: Peptide-180 library clone, tested as clonal phage supernatant; not shown: pIII of the bacteriophage to which the peptide is fused
B1: the “Anti-PSMA Fab (SEQ ID NOs: 19, 20) signal” value in assay [1] came to 2.03. Besides, the “Anti-PSMA Fab signal in the presence of PSMA” value (“Anti-PSMA Fab signal” for short) in assay [2] was 0.0735.

B2: Phage-1896 (peptide)
peptide: VLKWCTPAWMCEIF
modifications: cysteine pairing not given here; also: fused to phage pIII, sequence and linker not given here
notes: as for B1
For the molecule B2, the “Anti-PSMA Fab (SEQ ID NOs: 19, 20) signal” value in assay [1] turned out to be 2.03. The “Anti-PSMA Fab signal” value in assay [2] was 0.141.

Take MMKWCIPTWMCEME [Phage-1912]: the “Anti-PSMA Fab signal” value in assay [3] came to 0.132. The “Anti-PSMA Fab (SEQ ID NOs: 19, 20) signal” value in assay [4] is 2.

For the molecule VSKLCIPMWMCETS [Phage-1919], the “Anti-PSMA Fab signal” value in assay [3] worked out at 0.064. In assay [4], the “Anti-PSMA Fab (SEQ ID NOs: 19, 20) signal” value was determined as 1.99.

Turning to SFAWCIPPWMCEIT [Phage-1915], the “Anti-PSMA Fab signal” value in assay [3] stood at 0.127. Besides, in assay [4], the “Anti-PSMA Fab (SEQ ID NOs: 19, 20) signal” value was 2.

As for GDPWCIPAWMCMEF [Phage-1911], the “Anti-PSMA Fab signal” value in assay [3] amounted to 0.088. Further, in assay [4], the “Anti-PSMA Fab (SEQ ID NOs: 19, 20) signal” value was 2.01.

With MMKWCTPAWMCEEA [Phage-1909], in assay [3], the “Anti-PSMA Fab signal” value was determined as 0.0691. Further, the “Anti-PSMA Fab (SEQ ID NOs: 19, 20) signal” value in assay [4] worked out at 2.01.

B3: Phage-1905 (peptide)
peptide: EIRLCTPSWMCMGF
modifications: cysteine pairing not given here; also: displayed as fusion to phage pIII
notes: as for B1
Regarding B3, in assay [1], the “Anti-PSMA Fab (SEQ ID NOs: 19, 20) signal” value amounted to 2.02. Besides, the “Anti-PSMA Fab signal” value in assay [2] was 0.0792.

B4: Phage-1897 (peptide)
peptide: MEKLCIPAWMCDGM
modifications: cysteine pairing not given here; also: fused to phage pIII, sequence and linker not given here
notes: as for B1
Turning to B4, in assay [1], the “Anti-PSMA Fab (SEQ ID NOs: 19, 20) signal” value came out at 2.03. Also, in assay [2], the “Anti-PSMA Fab signal” value was found to be 0.279.

B5: Phage-1894 (peptide)
peptide: FEKWCTPAWMCAGW
modifications: cysteine pairing not given here; also: fused to phage pIII, sequence and linker not given here
notes: as for B1
As for B5, the “Anti-PSMA Fab (SEQ ID NOs: 19, 20) signal” value in assay [1] came out at 2.04. Besides, the “Anti-PSMA Fab signal” value in assay [2] is 0.0792.

As for WDNWCIPPWMCIGF [Phage-1908], the “Anti-PSMA Fab signal” value in assay [3] was 0.186. Further, the “Anti-PSMA Fab (SEQ ID NOs: 19, 20) signal” value in assay [4] was found to be 2.02.

For the molecule GDILCRPEWMCTGF [Phage-1910], the “Anti-PSMA Fab signal” value in assay [3] was found to be 0.111. The “Anti-PSMA Fab (SEQ ID NOs: 19, 20) signal” value in assay [4] came out at 2.01.

As for SAHMCIPPWMCLHT [Phage-1907], the “Anti-PSMA Fab signal” value in assay [3] is 0.133. The “Anti-PSMA Fab (SEQ ID NOs: 19, 20) signal” value in assay [4] came out at 2.02.

B6: Phage-1903 (peptide)
peptide: IDMRCTPNWMCIGF
modifications: cysteine pairing not given here; also: displayed as fusion to phage pIII
notes: as for B1
For B6, the “Anti-PSMA Fab (SEQ ID NOs: 19, 20) signal” value in assay [1] is 2.03. Moreover, the “Anti-PSMA Fab signal” value in assay [2] was 0.081.

B7: Phage-1900 (peptide)
peptide: VSRLCIPTWMCDYS
modifications: cysteine pairing not given here; also: displayed as fusion to phage pIII
notes: as for B1
For B7, the “Anti-PSMA Fab (SEQ ID NOs: 19, 20) signal” value in assay [1] worked out at 2.03. Moreover, the “Anti-PSMA Fab signal” value in assay [2] is 0.0757.

B8: Phage-1888 (peptide)
peptide: WSNWCTPEWMCVGF
notes: tested as crude clonal phage supernatant
As to B8, in assay [5], the “Anti-PSMA Fab signal” value turned out to be 0.0814. Further, the “Anti-PSMA Fab (SEQ ID NOs: 19, 20) signal” value in assay [6] came to 2.05.

B9: Phage-1891 (peptide)
peptide: LEKWCIPAWMCEWS
modifications: cysteine pairing not given here; also: fused to phage pIII, sequence and linker not given here
notes: as for B1
As to B9, the “Anti-PSMA Fab (SEQ ID NOs: 19, 20) signal” value in assay [1] was found to be 2.04. In assay [2], the “Anti-PSMA Fab signal” value was determined as 0.113.

For ESIRCIPLWMCEGF [Phage-1913], in assay [3], the “Anti-PSMA Fab signal” value turned out to be 0.0894. Also, the “Anti-PSMA Fab (SEQ ID NOs: 19, 20) signal” value in assay [4] stood at 2.

B10: Phage-1890 (peptide)
peptide: AIKWCIPSWMCVED
notes: tested as crude clonal phage supernatant; also called AIKWCIPSWMCVED
On to B10, for which, in assay [5], the “Anti-PSMA Fab signal” value is 0.0876. Besides, the “Anti-PSMA Fab (SEQ ID NOs: 19, 20) signal” value in assay [6] was 2.04.

B11: Phage-1898 (peptide)
peptide: AEKWCFPAWMCERP
modifications: cysteine pairing not given here; also: fused to phage pIII, sequence and linker not given here
notes: as for B1
For the molecule B11, the “Anti-PSMA Fab (SEQ ID NOs: 19, 20) signal” value in assay [1] is 2.03. Also, the “Anti-PSMA Fab signal” value in assay [2] was 0.0803.

Take FTIWCIPEWMCLHE [Phage-1916]: in assay [3], the “Anti-PSMA Fab signal” value came to 0.0999. The “Anti-PSMA Fab (SEQ ID NOs: 19, 20) signal” value in assay [4] came out at 2.

Take GEYWCIPSWMCQLY [Phage-1920]: in assay [3], the “Anti-PSMA Fab signal” value came out at 0.179. For the same molecule, the “Anti-PSMA Fab (SEQ ID NOs: 19, 20) signal” value in assay [4] came to 1.99.

B12: Phage-1902 (peptide)
peptide: LIPWCIPAWMCTSD
modifications: cysteine pairing not given here; also: displayed as fusion to phage pIII
notes: as for B1
B12: the “Anti-PSMA Fab (SEQ ID NOs: 19, 20) signal” value in assay [1] turned out to be 2.03. The “Anti-PSMA Fab signal” value in assay [2] is 0.0863.

B13: Phage-1899 (peptide)
peptide: SVKMCTPAWMCSGF
modifications: cysteine pairing not given here; also: fused to phage pIII, sequence and linker not given here
notes: as for B1
In the case of B13, the “Anti-PSMA Fab (SEQ ID NOs: 19, 20) signal” value in assay [1] came to 2.03. Moreover, the “Anti-PSMA Fab signal” value in assay [2] is 0.0752.

VIKWCTPAWMCTAL [Phage-1914]: the “Anti-PSMA Fab signal” value in assay [3] worked out at 0.0733. In addition, the “Anti-PSMA Fab (SEQ ID NOs: 19, 20) signal” value in assay [4] came out at 2.

B14: Phage-1901 (peptide)
peptide: TDMWCTPMWMCMGF
modifications: cysteine pairing not given here; also: displayed as fusion to phage pIII
notes: as for B1
Take B14: in assay [1], the “Anti-PSMA Fab (SEQ ID NOs: 19, 20) signal” value amounted to 2.03. Moreover, in assay [2], the “Anti-PSMA Fab signal” value turned out to be 0.0829.

B15: Phage-1904 (peptide)
peptide: DVKWCIPAWMCEGF
modifications: cysteine pairing not given here; also: displayed as fusion to phage pIII
notes: as for B1
As for B15, the “Anti-PSMA Fab (SEQ ID NOs: 19, 20) signal” value in assay [1] amounted to 2.02. In addition, the “Anti-PSMA Fab signal” value in assay [2] was found to be 0.105.

Regarding EKIWCVPAWMCTWL [Phage-1918], the “Anti-PSMA Fab signal” value in assay [3] was determined as 0.121. Besides, the “Anti-PSMA Fab (SEQ ID NOs: 19, 20) signal” value in assay [4] turned out to be 1.99.

B16: Phage-1889 (peptide)
peptide: DVMWCKPSWMCDWL
notes: as for B8
In the case of B16, the “Anti-PSMA Fab signal” value in assay [5] amounted to 0.127. Besides, the “Anti-PSMA Fab (SEQ ID NOs: 19, 20) signal” value in assay [6] stood at 2.04.

B17: Phage-1893 (peptide)
peptide: FDKWCIPPWMCQAL
modifications: cysteine pairing not given here; also: fused to phage pIII, sequence and linker not given here
notes: as for B1
For B17, in assay [1], the “Anti-PSMA Fab (SEQ ID NOs: 19, 20) signal” value turned out to be 2.04. Also, in assay [2], the “Anti-PSMA Fab signal” value stood at 0.112.

Consider IEKMCKPAWMCWAD [Phage-1917], for which, in assay [3], the “Anti-PSMA Fab signal” value was determined as 0.0706. In addition, the “Anti-PSMA Fab (SEQ ID NOs: 19, 20) signal” value in assay [4] stood at 2.

VMKWCIPEWMCYML [Phage-1906]: the “Anti-PSMA Fab signal” value in assay [3] worked out at 0.204. Moreover, the “Anti-PSMA Fab (SEQ ID NOs: 19, 20) signal” value in assay [4] was 2.02.

B18: Phage-1892 (peptide)
peptide: VPKLCTPVWMCTGF
modifications: cysteine pairing not given here; also: fused to phage pIII, sequence and linker not given here
notes: as for B1
In the case of B18, in assay [1], the “Anti-PSMA Fab (SEQ ID NOs: 19, 20) signal” value was 2.04. The “Anti-PSMA Fab signal” value in assay [2] was 0.0783.
